assay: soluble on expression in E. coli; label from the status in PepcDB or PDB records

Sequence	soluble on expression in E. coli
MKVLVVGSGGREHALLWKAAQSPRVKRLYAAPGNAGMEALAELVPWNGDVEALADWALAEGIDLTLVGPEAPLVEGIADAFQARGLLLFGPTQKAAMIEGSKAFAKGLMERYGIPTARYRVFREPLEALAYLEEVGVPVVVKDSGLAAGKGVTVAFDLHQAKQAVANILNRAEGGEVVVEEYLEGEEATVLALTDGETILPLLPSQDHKRLLDGDQGPMTGGMGAVAPYPMDEATLRRVEEEILGPLVRGLRAEGVVYRGVVYAGLMLTREGPKVLEFNARFGDPEAQALLPLLENDLVELALRVAEGRLAGTRLSWKEGAAACVVLAAPGYPESPRKGIPLHVPEPPEGVLVFHAGTRREGGRLVSAGGRVLNVVGLGRDLKEALERAYAYIPQVGFPGAVYRRDIGRRALARLST	soluble
MKVNIDPTAPTFATYRRDMRAEQMAEDYPVVSIDSDALDAARMLAEHRLPGLLVTAGAGKQYAVLPASQVVRFIVPRYVQDDPLLAGVLNESTADRCAERLSGKKVRDVLPDHLVEVPPANADDTIIEVAAVMARLRSPLLAVVKDGSLLGVVTASRLLAAALKT	soluble
MKVNNTIVVSIGQAGNQIAASFWKTVCLEHGIDPLTGQTAPGVAPRGNWSSFFSKLGESSSGSYVPRAIMVDLEPSVIDNVKATSGSLFNPANLISRTEGAGGNFAVGYLGAGREVLPEVMSRLDYEIDKCDNVGGIIVLHAIGGGTGSGFGALLIESLKEKYGEIPVLSCAVLPSPQVSSVVTEPYNTVFALNTLRRSADACLIFDNEALFDLAHRKWNIESPTVDDLNLLITEALAGITASMRFSGFLTVEISLRELLTNLVPQPSLHFLMCAFAPLTPPDRSKFEELGIEEMIKSLFDNGSVFAACSPMEGRFLSTAVLYRGIMEDKPLADAALAAMREKLPLTYWIPTAFKIGYVEQPGISHRKSMVLLANNTEIARVLDRICHNFDKLWQRKAFANWYLNEGMSEEQINVLRASAQELVQSYQVAEESGAKAKVQDSAGDTGMRAAAAGVSDDARGSMSLRDLVDRRR	soluble
MKVRNVIIGFMVASLTGCSMGHRDPVEIKQTLDKSINENGGLLLADLPASVQADLMPELNTPHVEVEEPVKRFRVRANGVGAKAFFTSLVKGTEYSVVIHPQVSGRITMNLSDVTMDDVLSSVEDLYGYDIVKAGKVLQVYPATIRTETIPVDYLQLTRKGRSLTTITTGSITNSDNNSSNNNNSSSKSNNNSSSSSSSATGGTEIETTSESDFWKELETAISVMIGNGADRSVVVSPQASVVTITASPDELRKVKQFLGTSHKRLQRQVILEAKLLEVTLSDGYQQGINWSNLTASLGGTDVVFGQTSGLVQGALPGMDTIGTLLGGQTNITVSDGNFQAVLSFMDTQGDLNVLSSPRVTAANNQKAVIKVGRDEYYVTEVSSVTGSGDNSNASPEVTLTPFFSGISLDVTPQIDDKGNVMLHVHPSVIDVENEVKEIDLGDVGGVLKLPLAKSSIRESDSVIRAKSGDVVVIGGLMKSQTVDQVSKVPLLGDVPALGHLFRNVSQLTQKTELVILLKPTVVGVDTWQEELERSRDLLQEWFPDELEHHHHHH	soluble
MKVVVIGGGWSGVAAAIEAKKMGADVVLFEKTDLLLGLGNVGGIMRNNGRYTASEELIAMGGGDLINITDKVSRHKDIPFPGHEHAWLYDVNLVEGEVKRYVESLGIETKMVSRIIDIKQEDNKILGVYTSDGQYYNGDVFIETTGSTGPMGNCLRYGNGCSMCILRCPSFGPRISISSRCGVEDIQGERVGDELGAFSGSCKLAKETLSEEIRKELEEKGCVVLKIPKEDVNYDKLNTKVCQQYALKEFAENVVLLDTGHAKLMTTYYPLEKLRKIKGLENAKYVDPYAGGKGNSIRYLSVAPRDDNMKVKGVTNLFCAGEKSGLFVGHTEAIVTGTLAGHNAVRHALGIPYLILPRATVLGDIIAFANEESQSREGKKNRYTFAGSVYFNRMKELGLYTIDKDEIQKRVAQLNLDGVFSKKLMLEHHHHHH	not soluble
MKYDTSELCDIYQEDVNVVEPLFSNFGGRASFGGQIITVKCFEDNGLLYDLLEQNGRGRVLVVDGGGSVRRALVDAELARLAVQNEWEGLVIYGAVRQVDDLEELDIGIQAMAAIPVGAAGEGIGESDVRVNFGGVTFFSGDHLYADNTGIILSEDPLDIE	soluble
MKYSKEYDEKTVVKINDVKFGEGFTIIAGPCSIESREQIMKVAEFLAEVGIKVLRGGAFKPRTSPYSFQGYGEKALRWMREAADEYGLVTVTEVMDTRHVELVAKYSDILQIGARNSQNFELLKEVGKVENPVLLKRGMGNTIQELLYSAEYIMAQGNENVILCERGIRTFETATRFTLDISAVPVVKELSHLPIIVDPSHPAGRRSLVIPLAKAAYAIGADGIMVEVHPEPEKALSDSQQQLTFDDFLQLLKELEALGWKG	soluble
MKYTITVMSGKGGVGKSTVAVNLAVSLARKGLKVGLIDADINGPDDPKLLGVSDLKLYADEEGIIPAETRYGVRVVSMGFLIPTEDTPIIWRGSLMHKAIQQFLEDVNWKDTDVVVLDMPPGTGDVALSVAQLIPESNGVVIVVTPQDVALLDAKKAINFAKQLKLPVLGIIENMSGFVCPHCGNVTYIFKNGGGEKSAKEYNLPFLGKIPLIPEIAENGDNGIPAVVINDKIREIFDSITDQILKEAQIENIKQLEHHHHHH	not soluble
MLAAGMSRRMGFNKLLAPLCGKRVLWHVLELVARFEGVLEGAVVVTSGEVADVLRRERPPGRRGLFRVVVNREQWRGLSHSIRLGVEASPGARAYLFFNGDRPFVSKHTVARVLALYMARRPLIAAPMAGGAIAPPVVVDSRLRGELLRLSGDTGVRSLFGKYRDSLAVVEVDDPGLHLDVDTPEDLERASKMCSQLGGGPREKPLEHHHHHH	not soluble
MLAAWLGCVLPAGAGLPVETLRVPPGFRVELLTEAMPSAREMALSPAGILYVGSRTGKVYALPLQVPGATVRVVASGLEQPVGVAWRDGSLYVSAVSRVVRLDRIDSRLDDPPVPVVVSDRFPTETHHGWKFIAFGPDGKLYVPVGAPCNVCHRDEDRYANLMRMNADGSSLEVVARGIRNTVGFDWHPVTHELWFTDNGADMMGDDVPDDELNRITAPGQHFGYPFCHAGDVPDPEFGAGHPCSRYVPPVGKLGAHVAALGMRFYTGSNFPQAYRHNLFIAEHGSWNRSSKVGYRVVRVVLDAAGKVVRQEPFVEGWLRGERAWGRPVDVLVAPDGSLLVSDDYAGAVYRVRYTGKLEHHHHHH	soluble
MLAKIIMKNFKSFKNETVIDFTRINYKFLENNVSNNGVLKGVAFYGANASGKSNVLWAIRFLLDELFGEEKNPVTFMKCLFSDEPEFSLQYFFVIESREIHYLIDFHTEKGIINEELYLDRKLLLQRMGSTAKSGITEKKVYTDLNNKVLFLRTVYFNTGFSGDDKDNNANNNILRQWFDYMQNSIYVNPFLHRGIAYGKQDVVLNKYLENEGVKEINRFFTKYNFEYTLDYLNERKVKDVTEIVNDDNIKLVFFNRKGVNVPIPYVLESHGNQNLLNILPCFLRVVQNSGMLLVDEFSGGLHNELERLLVNYFFLEHHHHHH	not soluble
MLAVHRPSSAVSDGDSVQIPMMIASFQKRFPSLSRDSTAARFHTHEVGPNQCCSAVIQEISAPISTVWSVVRRFDNPQAYKHFLKSCSVIGGDGDNVGSLRQVHVVSGLPAASSTERLDILDDERHVISFSVVGGDHRLSNYRSVTTLHPSPISGTVVVESYVVDVPPGNTKEETCDFVDVIVRCNLQSLAKIAENTAAESKKKMSL	not soluble
MLCAKNKKDPKPPPASFSETSKVQNVQNTQPKPAAPSQMSIDESHSKNQKLPSAEKSVEECKKPVSPEKKKSPIKVLSEKKLKSKKKEEDKEPDEKVEKDVKKEVKADNNEPLVKNLKIAKKEQEEENPKTDLESHKDEAEAKKKESRRQKKMRNKNSKEGSVEKMEKSEKAY	not soluble
MLDFAAIDFETANAERTSVCSVGIIVVRGGQIVHRYYSLIRPEPDYYNYHNTRVHGLTAADTESARIFPDVWAEVEPLIAGLPLVAHNKPFDEGCLKAVFRMYRMDYPDYPFFCTLQAARRQLRHLSDHRLPTVAQCCGYTLAQHHQALADAEACAAIALKLL	not soluble
MLDLFADEAPWQEPLAPGAVVLRRFAFRAAQSLLDDIGFVASQSPFRQMVTPGGYTMSVAMTNCGALGWTTDRHGYCYAVRDPLTDKPWPALPLSFASVCRQAAIAAGYASFQPDACLINRYAPGAKLSLHQDKDEPDLRAPIVSVSLGVPAVFQFGGLRRSDPIQRILLEHGDIVVWGGESRLFYHGIQPLKAGFHPMTGEFRYNLTFRQAAEKELEHHHHHH	soluble
MLDLIQTRRDLHQIPEIGLEEFKTQAYLLDVIEKLTTGKDFVQIRTWRTGILVYLQGSQPERTIGWRTDIDGLPIVEQTGLPFASQHQGRMHACVHDFHMTIALGCLERALEEQPKNNLLFLFQPAEENEAGGMLMYEDGAFGDWLPDQFYGLHVRPDLKVGQIATNTHTLFAGTCEVKIRFKGKGGHAAFPHEANDALVAASYFVTQVQSVVSRNVNPIEGAVVTFGVFQAGTTNNVITDTAFLHGTIRALTQDMSLLVQKRVKTVAEGVAAAFDMEVEVELKQGGYLPVENNPALARELMDFFDEKDGIELIDIEPAMTGEDFGYLLSKVDGVMFWLGIDSPYALHHPQMSPKEEVLAIGVAAVSSFLKKKAAE	soluble
MLDPELIGNPEDILEKPALKILGKEVEVYDLSNPFGYGVPLWPYFNDVIIDRYHYHAKSRVLSQIITTTMHVSTHADAPIHVEEGFPSIDEVPIERYMGEGVVVSIPKKKWEVITAEDLEKADPPIEKGDIVIVNTGWHRYWSDSVKYFCYAPGFYKEAGEWFVKKKVKAVGIDTQALDHPLATREAWHHPGADERNSILPWLKEEYKQLTGRDVSEDFPYWEPCHRLLLTHGIMGWENVGGDIDKVTGQRCTIIGLPIRWVKGDGSIVRLVALVEKR	soluble
MLEALRKCPTMFAVTSDGSSTMAKMDNSARQLALFVATTNGEFYQSNFGEEALETIKYQLGKDAGWGLFFDVLRNAFNGNCVSILARSEDTAHILCGKEDCSEKSALCFPIQKTEEDTSATILKCLVDANAVYANPKEEKNKVQKIMEELEKAKLQVRMLEEEVRVLCENNIWRRKQDTKNTLKIGKLRDNISRLSNQINPKAKEVSETSVGETSGPHAEDSYIPGRKLLRLVFEKKECKEYDVELLRLIKSRWPKTEGSKACNASNCLIDPYTESELPERLSRMSKKHKMVWGTLNGLDDWDYNVFELQAAIDGDDINCKNDQSGCGALFITMYALVVKYGFLRKFEINERIFLNWLSAVEGGYHANPYHNSMHAADVLHITHYLLSKGGLAELCKLNDRQVLAALFAAAIHDYNHPGINNNFSILTQTYNATLYNDRSVLENMHVASVFELMRNPALNILACFSEEHWRDFRNTVIDMVLATDMSLHEKYMTQFKRRLSEKRPFTEDCDQNLALAMALKLADISNCCRPLPLYLKWSERVSDEFYTQGDRERSLGMSCSPFMDRQTPMIAEGQTSFINYIFIPFLEVMAEFLPSMGFTLGLAAVCKSHRLVGNTGQGT	not soluble
MLEDDFGREVSGVRVSLTDRCNFDCVYCHNEGLGDTRGPMEAQDDELTADTIVAFLEVAAEFGVDSVKFTGGEPMLREDLEEIVRRAPDEMEVSMTTNGTFLPGRAPDLVDAGLERVNVSQDALDSEAFAELTQSGAYDRVLEGVEAALDAGLEPVKLNMVVFEPTAGYVPKMVDHVAENPGLQLQLIEYMPELAGHPEWAIDIDRVHDWLEDRADKVEHREMHDRKRYWMHSGEAAVEGDSASTSLAASDGGIRTEPVNNHNSGMVEIVDPVGNENFCANCHRVRLTHDGYLKGCLNRNDDLRDIGTTKESMRAAFRETVDTRVPYYGEYMIETEDGEWEINEEYIDTDGDRAPYEYSE	not soluble

From the DeepSol protein solubility set
